For this assay, the target named is CD47 receptor (plate-coated and soluble antigen of the affinity ELISA) (UniProt Q08722 19-141, limits assumed). In words: ELISA of equilibrated mAb/receptor mixtures on CD47-coated plate (Friguet method). Background: In an ELISA, binding on a coated surface is turned into a signal by an enzyme label.
CD47 receptor (plate-coated and soluble antigen of the affinity ELISA), sequence (Q08722 19-141 limits assumed): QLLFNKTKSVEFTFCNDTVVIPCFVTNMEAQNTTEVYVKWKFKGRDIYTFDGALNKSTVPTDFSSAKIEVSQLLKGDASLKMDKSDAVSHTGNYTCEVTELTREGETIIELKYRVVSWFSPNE

Method: Briefly, the 96-well plate was coated with 200 ng of CD47 receptor in 100 μL of coating buffer (50 mM carbonate-bicarbonate buffer, pH 9.6) and incubated at 4° C. overnight. The plate was washed three times with PBS containing 0.05% Tween 20, and blocked with 2% BSA (bovine serum albumin). […] After incubating at 37° C. for 1 hr, 100 μL of HRP goat anti-mouse IgG secondary antibody (Abcam, Cambridge, Mass.) at concentration of 50 ng/mL was added to each well and incubated at 37° C. for 1 hr, followed with TMB substrate for color development. The reaction was stopped by adding 100 μL of 1M sulfuric acid. The absorbance was recorded with BioTek plate reader at a wavelength of 450 nm.

B1: anti-CD47 monoclonal antibody (IgG2b/kappa) (antibody, V domains shown)
VH: EVQLVESGGGLVQPKGSLKLSCAASGFTFNTYAMNWVRQAPGKGLEWIARIRSKSNNYATYYADSMKDRFTISRDDSQSMLYLQMNNLKTEDTAMYYCVRPAQGAMDYWGHGTSVTVSS
VL: DIVLTQSPATLSVTPGDSVSLSCRASQRISNNLHWYQQKSHESPRLLIKYSSQSISGIPSRFSGSGSGTDFTLSINSVETEDFGMYFCQQSNAWPYTFGGGTKLEIRR
notes: The antibody was labelled with Alexa Fluor 647 for flow cytometry and confocal imaging; also called anti-CD47 mAb; CD47 mAb
For the molecule B1, the equilibrium dissociation constant (Kd) (as a rule, the constant that tells how readily two partners part at equilibrium) was found to be 2.3 nM.
